# Numbering of substitutions follows the chain as printed.
# B1: pre-let-7d mono-U (structured_RNA)
# RNA: AGAGGUAGUAGGUUGCAUAGUUUUAGGGCAGGGAUUUUGCCCACAAGGAGGUAACUAUACGACCUGCUGCCUUUCU
# modifications: 5'-monophosphate; 3'-OH; one extra 3' U
# B2: pre-let-7g mono-U (structured_RNA)
# RNA: UGAGGUAGUAGUUUGUACAGUUUGAGGGUCUAUGAUACCACCCGGUACAGGAGAUAACUGUACAGGCCACUGCCUUGCU
# modifications: 5'-monophosphate; 3'-OH; one extra 3' U
# B3: pre-let-7a-1 mono-U (structured_RNA)
# RNA: UGAGGUAGUAGGUUGUAUAGUUUUAGGGUCACACCCACCACUGGGAGAUAACUAUACAAUCUACUGUCUUUCU
# modifications: 5'-monophosphate; 3'-OH; one extra 3' U
# B4: pre-miR-98 mono-U (structured_RNA)
# RNA: UGAGGUAGUAAGUUGUAUUGUUGUGGGGUAGGGAUAUUAGGCCCCAAUUAGAAGAUAACUAUACAACUUACUACUUUCCU
# modifications: 5'-monophosphate; 3'-OH; one extra 3' U
# B5: pre-let-7b mono-U (structured_RNA)
# RNA: UGAGGUAGUAGGUUGUGUGGUUUCAGGGCAGUGAUGUUGCCCCUCGGAAGAUAACUAUACAACCUACUGCCUUCCU
# modifications: 5'-monophosphate; 3'-OH; one extra 3' U
# B6: pre-let-7a-1 (7a1) (structured_RNA)
# RNA: UGAGGUAGUAGGUUGUAUAGUUUUAGGGUCACACCCACCACUGGGAGAUAACUAUACAAUCUACUGUCUUUC
# modifications: 5'-monophosphate; 3'-OH
# B7: pre-let-7b (7b) (structured_RNA)
# RNA: UGAGGUAGUAGGUUGUGUGGUUUCAGGGCAGUGAUGUUGCCCCUCGGAAGAUAACUAUACAACCUACUGCCUUCC
# modifications: 5'-monophosphate; 3'-OH
# B8: pre-let-7g (7g) (structured_RNA)
# RNA: UGAGGUAGUAGUUUGUACAGUUUGAGGGUCUAUGAUACCACCCGGUACAGGAGAUAACUGUACAGGCCACUGCCUUGC
# modifications: 5'-monophosphate; 3'-OH
# B9: pre-let-7f-2 (7f2) (structured_RNA)
# RNA: UGAGGUAGUAGAUUGUAUAGUUUUAGGGUCAUACCCCAUCUUGGAGAUAACUAUACAGUCUACUGUCUUUC
# modifications: 5'-monophosphate; 3'-OH
# B10: pre-let-7d (7d) (structured_RNA)
# RNA: AGAGGUAGUAGGUUGCAUAGUUUUAGGGCAGGGAUUUUGCCCACAAGGAGGUAACUAUACGACCUGCUGCCUUUC
# modifications: 5'-monophosphate; 3'-OH
# B11: pre-let-7i (7i) (structured_RNA)
# RNA: UGAGGUAGUAGUUUGUGCUGUUGGUCGGGUUGUGACAUUGCCCGCUGUGGAGAUAACUGCGCAAGCUACUGCCUUGC
# modifications: 5'-monophosphate; 3'-OH
# B12: pre-let-7a-3 (7a3) (structured_RNA)
# RNA: UGAGGUAGUAGGUUGUAUAGUUUGGGGCUCUGCCCUGCUAUGGGAUAACUAUACAAUCUACUGUCUUUC
# modifications: 5'-monophosphate; 3'-OH
# B13: pre-miR-98 (m98) (structured_RNA)
# RNA: UGAGGUAGUAAGUUGUAUUGUUGUGGGGUAGGGAUAUUAGGCCCCAAUUAGAAGAUAACUAUACAACUUACUACUUUCC
# modifications: 5'-monophosphate; 3'-OH
# B14: pre-let-7a-2 (7a2) (structured_RNA)
# RNA: UGAGGUAGUAGGUUGUAUAGUUUAGAAUUACAUCAAGGGAGAUAACUGUACAGCCUCCUAGCUUUCC
# modifications: 5'-monophosphate; 3'-OH
# B15: pre-let-7c (7c) (structured_RNA)
# RNA: B14 RNA with A19G, A27G, U33C, A35C, A36U, A42U, G53A, C57U
# modifications: 5'-monophosphate; 3'-OH
# B16: pre-let-7e (7e) (structured_RNA)
# RNA: UGAGGUAGGAGGUUGUAUAGUUGAGGAGGACACCCAAGGAGAUCACUAUACGGCCUCCUAGCUUUCC
# modifications: 5'-monophosphate; 3'-OH
# B17: pre-miR-202 (m202) (structured_RNA)
# RNA: UUCCUAUGCAUAUACUUCUUUGAGGAUCUGGCCUAAAGAGGUAUAGGGCAUGGGAAAA
# modifications: 5'-monophosphate; 3'-OH
# Target: T1, ciDicer (catalytically inactive human Dicer) (Homo sapiens, UniProt Q9UPY3 1-1922, D1320A;D1709A)
# Experiment: EMSA; range over five mono-U RNAs; individual value only in figure; EMSA: 50 mM Tris pH 7.6, 50 mM NaCl, 10% glycerol, 0.05% NP-40, 2 mM DTT, 4 °C, 30 min, 2 pM 32P-RNA; 4-15% native PAGE in Tris-glycine; RNA heated 95 °C and snap-cooled; no Mg2+ added to DB buffer
# Settings: protein: recombinant; label: 5'-32P; hairpin, 2-nt 3' overhang
# T1 sequence (Q9UPY3 whole entry D1320A/D1709A): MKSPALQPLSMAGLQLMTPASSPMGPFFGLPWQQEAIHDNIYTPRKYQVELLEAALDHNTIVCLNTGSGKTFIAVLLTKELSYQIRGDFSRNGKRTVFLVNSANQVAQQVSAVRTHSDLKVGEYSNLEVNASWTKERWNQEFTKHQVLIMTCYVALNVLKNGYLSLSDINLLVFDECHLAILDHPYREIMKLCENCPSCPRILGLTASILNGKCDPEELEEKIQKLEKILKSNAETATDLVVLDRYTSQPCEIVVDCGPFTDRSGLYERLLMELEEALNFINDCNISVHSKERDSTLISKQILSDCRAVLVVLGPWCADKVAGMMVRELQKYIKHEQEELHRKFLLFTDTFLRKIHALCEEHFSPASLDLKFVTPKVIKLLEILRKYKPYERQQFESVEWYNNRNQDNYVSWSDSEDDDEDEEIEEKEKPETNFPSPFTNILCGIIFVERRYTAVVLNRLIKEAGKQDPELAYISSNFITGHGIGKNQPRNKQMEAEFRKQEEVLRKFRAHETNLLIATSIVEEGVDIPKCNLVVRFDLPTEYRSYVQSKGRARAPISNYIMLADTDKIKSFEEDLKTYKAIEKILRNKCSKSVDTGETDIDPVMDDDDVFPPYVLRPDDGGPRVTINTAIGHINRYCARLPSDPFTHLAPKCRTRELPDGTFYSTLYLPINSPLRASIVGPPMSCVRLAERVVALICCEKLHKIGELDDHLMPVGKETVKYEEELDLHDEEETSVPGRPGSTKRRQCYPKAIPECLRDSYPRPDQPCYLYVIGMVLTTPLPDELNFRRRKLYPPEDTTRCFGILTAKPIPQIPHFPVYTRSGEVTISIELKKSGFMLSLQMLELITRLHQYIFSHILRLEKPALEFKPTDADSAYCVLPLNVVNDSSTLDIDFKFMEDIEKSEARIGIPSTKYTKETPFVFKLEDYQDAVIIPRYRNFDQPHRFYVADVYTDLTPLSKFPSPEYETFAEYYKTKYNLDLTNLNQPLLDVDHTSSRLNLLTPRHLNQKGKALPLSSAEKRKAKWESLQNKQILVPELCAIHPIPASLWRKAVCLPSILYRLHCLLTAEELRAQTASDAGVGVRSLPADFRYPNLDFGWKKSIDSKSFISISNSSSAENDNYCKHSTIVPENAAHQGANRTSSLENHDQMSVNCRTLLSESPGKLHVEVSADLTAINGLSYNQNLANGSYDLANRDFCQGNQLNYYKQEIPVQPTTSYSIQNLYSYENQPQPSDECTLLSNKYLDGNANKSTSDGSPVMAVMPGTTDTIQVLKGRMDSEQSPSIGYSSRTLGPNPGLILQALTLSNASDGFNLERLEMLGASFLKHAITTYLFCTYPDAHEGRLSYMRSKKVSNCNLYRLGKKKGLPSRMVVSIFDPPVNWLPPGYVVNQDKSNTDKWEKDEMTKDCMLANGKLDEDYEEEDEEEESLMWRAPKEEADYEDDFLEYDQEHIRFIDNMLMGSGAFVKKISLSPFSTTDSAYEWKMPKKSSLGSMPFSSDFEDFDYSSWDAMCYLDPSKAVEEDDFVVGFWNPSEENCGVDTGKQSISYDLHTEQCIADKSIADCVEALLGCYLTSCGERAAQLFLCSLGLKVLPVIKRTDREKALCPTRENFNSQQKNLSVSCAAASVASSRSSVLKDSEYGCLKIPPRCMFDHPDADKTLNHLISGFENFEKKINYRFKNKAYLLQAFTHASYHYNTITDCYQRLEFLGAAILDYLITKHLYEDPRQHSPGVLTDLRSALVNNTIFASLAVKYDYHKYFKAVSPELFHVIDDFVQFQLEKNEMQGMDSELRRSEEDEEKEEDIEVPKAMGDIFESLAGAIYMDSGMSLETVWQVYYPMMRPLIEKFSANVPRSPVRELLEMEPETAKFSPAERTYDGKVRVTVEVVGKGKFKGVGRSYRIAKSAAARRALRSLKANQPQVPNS
row,Molecule,Kd [nM]
1,B1,~19
2,B2,~19
3,B3,~19
4,B4,~19
5,B5,~19

# Target: T1, ciDicer (catalytically inactive human …)
# Experiment: EMSA; EMSA: 50 mM Tris pH 7.6, 50 mM NaCl, 10% glycerol, 0.05% NP-40, 2 mM DTT, 4 °C, 30 min, 2 pM 32P-RNA; 4-15% native PAGE in Tris-glycine; RNA heated 95 °C and snap-cooled; no Mg2+ added to DB buffer
# Settings: protein: recombinant; label: 5'-32P; hairpin, 1-nt 3' overhang (Group II)
row,Molecule,Kd [nM]
1,B6,14 ± 3
2,B7,13 ± 1
3,B8,12 ± 2
4,B9,17 ± 4
5,B10,16 ± 3
6,B11,17 ± 5
7,B12,16 ± 5
8,B13,12 ± 7

# Same assay, conditions: protein: recombinant; label: 5'-32P; hairpin, 2-nt 3' overhang (Group I)
row,Molecule,Kd [nM]
1,B14,12 ± 5
2,B15,13 ± 4
3,B16,12 ± 2

# Same assay, conditions: protein: recombinant; label: 5'-32P; hairpin, 14-nt apical loop, 2-nt 3' overhang (Group I)
row,Molecule,Kd [nM]
1,B17,7 ± 2

# Target: ciDicer (catalytically inactive human Dicer) D1320A;D1709A (Homo sapiens) (UniProt Q9UPY3)
# Experiment: EMSA
# Settings: 5'-monophosphate; 3'-OH; EMSA: 50 mM Tris pH 7.6, 50 mM NaCl, 10% glycerol, 0.05% NP-40, 2 mM DTT, 4 °C, 30 min, 2 pM 32P-RNA; 4-15% native PAGE in …; RNA heated 95 °C and sn
# ciDicer (catalytically inactive human Dicer) D1320A;D1709A (Homo sapiens), sequence (Q9UPY3 whole entry D1320A/D1709A): as above
row,Molecule,Kd [nM]
1,pre-let-7f-1 (7f1),10
